Data taken from patent publication US20230374083A1.

B1: E97D_del18 (protein)
chain: MITSVWTKGVTPLTPEQFRYNNEDVIHAPYLAHQGWYDITKAFDGKDNLLCGAATAGNMLHWWFDQNKTEIEAYLSKHPDKQKIIFNNQELFDLKAAIDTKDSQTNSQLFNYFRDKAFPNLSARQLGVMPDLVLDMFINGYYLNVFKTQSTDVNRPYQDKDKRGGIFDAVFTRGDQTTLLTARHDLKNKGLNDISTIIKQELTEGRALALSHTYANVSISHVINLWGADFNAEGNLEAIYVTDSDANASIGMKKYFVGINAHRHVAISAKKIEGENIGAQVLGLFTLSSGKDIWQKLSHHHHHH

How the values were obtained:
trastuzumab = assay: cell-based or functional assay
[1] = target: IgG1 in the sera of humans
[2] = target: human IVIg (an intravenous human immunoglobulin)

Row | Molecule | cleavage of human IgG1, SDS-PAGE of cleavage products (fold of wild-type IdeE) (trastuzumab) | further results
1 | IdeE A59L (enzyme) | > 2 | –
2 | IdeE A59V (enzyme) | > 2 | –
3 | IdeE E97D (enzyme) | > 2 | –
4 | IdeE R280H (enzyme) | > 2 | –
5 | IdeE T8D (enzyme) | > 2 | –
6 | IdeE T8W (enzyme) | > 2 | –
7 | IdeE T24A (enzyme) | > 2 | –
8 | B1 | – | cleavage of serum IgG in vitro, reducing SDS-PAGE (25 kD Fc fragment) (IgG1 in the sera of mice): has very low or no activity of cleaving IgG1 in the sera of mice; cleavage of serum IgG in vitro, reducing SDS-PAGE (25 kD Fc fragment) [1]: E97D_del18 can effectively and specifically cleave IgG1 in the sera of humans; cleavage of human IVIg in mouse serum or plasma in vitro, non-reducing SDS-PAGE [2]: E97D_del18 can effectively cleave human IVIg in both the sera and plasmas of mice
